Where two headings read alike, the source gives them in different places.
Columns and labels:
[1] = target: HIV-1 capsid protein CA N21C/A22C (HIV-1 NL4-3); test: cross-linking; engineered disulfide cross-links read by non-reducing SDS-PAGE; after assembly: purified protein at 1 mg/mL (also about 4 and 10 mg/mL) dialyzed into 50 mM Tris-HCl, pH 8.0, 1 M NaCl overnight at 4 °C, no reductant
[2] = target: HIV-1 capsid protein CA N21C/A22C (HIV-1 NL4-3); test: as above; remark: listed apart in the source

Substance “HIV-1 capsid protein CA N21C/A22C (natural protein)” has a stoichiometry N [1] of 5 and a stoichiometry N [2] of 6.

— article PMC6316451
